Tests used:
[1] = target: T1, GST-hMYH (full-length, amino acids 1-547) (human, UniProt Q9UIF7-1 1-546); experiment: pull-down; GST or GST-hMYH fusion on glutathione-Sepharose 4B beads, purified His-hRad9 added; 50 mM Tris-HCl pH 7.5, 150 mM NaCl, 1 mM EDTA, 0.3 mM DTT, 0.1% NP-40; 3 h at 4°C; blot with anti-GST and anti-His; settings: both partners purified
T1 construct: human MutY glycosylase homolog (hMYH), NM_012222; printed as full-length, amino acids 1-547; cloned into pGEX-4T1; also called GST-tagged hMYH wild type; source: bacterially expressed and purified
T1 sequence (looked up): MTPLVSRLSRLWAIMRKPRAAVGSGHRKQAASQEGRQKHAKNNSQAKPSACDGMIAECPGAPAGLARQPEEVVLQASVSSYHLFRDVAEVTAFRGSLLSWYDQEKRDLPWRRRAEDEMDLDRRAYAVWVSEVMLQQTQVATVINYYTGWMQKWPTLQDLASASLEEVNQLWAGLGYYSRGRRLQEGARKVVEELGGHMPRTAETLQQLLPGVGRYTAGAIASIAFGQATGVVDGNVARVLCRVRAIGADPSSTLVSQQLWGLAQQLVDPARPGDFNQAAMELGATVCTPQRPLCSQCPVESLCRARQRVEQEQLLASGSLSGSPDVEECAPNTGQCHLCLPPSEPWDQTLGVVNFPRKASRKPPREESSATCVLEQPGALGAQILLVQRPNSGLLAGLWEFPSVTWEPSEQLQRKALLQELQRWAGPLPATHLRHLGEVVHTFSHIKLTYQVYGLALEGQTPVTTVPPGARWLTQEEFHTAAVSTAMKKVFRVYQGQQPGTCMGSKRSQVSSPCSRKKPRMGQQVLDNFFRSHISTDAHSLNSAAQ

[2] = target: T2, GST-hMYH-ΔC (amino acids 1-487) (human, UniProt Q9UIF7-1 1-487); experiment: as above; settings: both partners purified
T2 construct: cloned into pGEX-4T1; source: bacterially expressed and purified
T2 sequence (looked up): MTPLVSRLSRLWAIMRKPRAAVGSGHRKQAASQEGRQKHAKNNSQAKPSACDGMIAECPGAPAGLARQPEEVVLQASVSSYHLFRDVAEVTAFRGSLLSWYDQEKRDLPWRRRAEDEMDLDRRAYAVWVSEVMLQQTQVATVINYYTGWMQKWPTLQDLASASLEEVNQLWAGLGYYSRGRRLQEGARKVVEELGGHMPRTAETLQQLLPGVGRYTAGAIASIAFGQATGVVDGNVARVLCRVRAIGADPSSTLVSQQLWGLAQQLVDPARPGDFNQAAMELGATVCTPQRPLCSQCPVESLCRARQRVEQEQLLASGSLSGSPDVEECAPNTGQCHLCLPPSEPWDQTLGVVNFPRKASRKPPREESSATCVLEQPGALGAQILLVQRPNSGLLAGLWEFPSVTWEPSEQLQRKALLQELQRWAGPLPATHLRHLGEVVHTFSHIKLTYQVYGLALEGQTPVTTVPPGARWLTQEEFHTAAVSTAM

binding result [1]: binds
binding result [2]: binds
B1: His-hRad9 (natural protein, human, UniProt Q99638 1-391, looked up)
chain: MKCLVTGGNVKVLGKAVHSLSRIGDELYLEPLEDGLSLRTVNSSRSAYACFLFAPLFFQQYQAATPGQDLLRCKILMKSFLSVFRSLAMLEKTVEKCCISLNGRSSRLVVQLHCKFGVRKTHNLSFQDCESLQAVFDPASCPHMLRAPARVLGEAVLPFSPALAEVTLGIGRGRRVILRSYHEEEADSTAKAMVTEMCLGEEDFQQLQAQEGVAITFCLKEFRGLLSFAESANLNLSIHFDAPGRPAIFTIKDSLLDGHFVLATLSDTDSHSQDLGSPERHQPVPQLQAHSTPHPDDFANDDIDSYMIAMETTIGNEGSRVLPSISLSPGPQPPKSPGPHSEEEDEAEPSTVPGTPPPKKFRSLFFGSILAPVRSPQGPSPVLAEDSEGEG
notes: human Rad9 (hRad9), NM_004584; also called purified His-hRad9; His-purified hRad9 protein; source: bacterially expressed and purified

Reference: article PMC4151078, “Visualization of the physical and functional interaction between hMYH and hRad9 by Dronpa bimolecular fluorescence complementation” (BMC Molecular Biology, 2014)
